In PMC4267639, “The Mtr4 ratchet helix and arch domain both function to promote RNA unwinding”:
Changes are numbered by the printed parent chain. Names may count otherwise.

T1: Mtr4 R1030A-archless R1030A (Saccharomyces cerevisiae) (UniProt P47047)
T1 sequence: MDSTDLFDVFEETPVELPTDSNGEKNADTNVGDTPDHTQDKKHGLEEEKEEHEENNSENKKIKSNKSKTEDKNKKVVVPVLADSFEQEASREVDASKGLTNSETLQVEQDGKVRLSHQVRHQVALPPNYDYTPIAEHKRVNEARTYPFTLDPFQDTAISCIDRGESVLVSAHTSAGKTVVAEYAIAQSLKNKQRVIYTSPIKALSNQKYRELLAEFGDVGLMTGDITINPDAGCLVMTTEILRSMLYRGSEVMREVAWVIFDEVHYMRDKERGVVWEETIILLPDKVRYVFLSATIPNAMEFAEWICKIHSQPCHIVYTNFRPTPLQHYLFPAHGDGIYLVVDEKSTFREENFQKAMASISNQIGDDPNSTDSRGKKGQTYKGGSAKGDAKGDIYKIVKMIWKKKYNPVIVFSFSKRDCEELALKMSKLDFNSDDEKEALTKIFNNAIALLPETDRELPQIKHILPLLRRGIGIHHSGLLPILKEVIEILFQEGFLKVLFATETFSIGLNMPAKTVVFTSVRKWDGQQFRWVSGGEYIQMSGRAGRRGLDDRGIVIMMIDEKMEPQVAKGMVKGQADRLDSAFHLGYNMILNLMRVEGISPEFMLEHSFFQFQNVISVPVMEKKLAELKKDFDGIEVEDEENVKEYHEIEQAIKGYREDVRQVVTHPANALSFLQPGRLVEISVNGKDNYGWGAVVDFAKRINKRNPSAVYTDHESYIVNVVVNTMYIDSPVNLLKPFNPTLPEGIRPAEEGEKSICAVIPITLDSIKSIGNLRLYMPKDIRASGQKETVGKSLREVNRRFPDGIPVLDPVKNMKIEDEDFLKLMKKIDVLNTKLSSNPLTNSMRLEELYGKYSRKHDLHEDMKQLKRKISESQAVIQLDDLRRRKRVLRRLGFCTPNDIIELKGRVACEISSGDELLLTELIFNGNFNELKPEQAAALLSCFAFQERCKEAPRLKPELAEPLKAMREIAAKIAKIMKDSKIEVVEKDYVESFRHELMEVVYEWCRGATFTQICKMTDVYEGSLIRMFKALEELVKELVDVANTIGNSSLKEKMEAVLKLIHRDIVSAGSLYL

T2: Mtr4 archless (Saccharomyces cerevisiae) (UniProt P47047)
T2 sequence: T1 sequence with A1030R

T3: Mtr4 E1033A-archless E1033A (Saccharomyces cerevisiae) (UniProt P47047)
T3 sequence: T1 sequence with A1030R, E1033A

T4: Mtr4 R1030A (Saccharomyces cerevisiae, UniProt P47047 1-1073, R1030A)
T4 sequence: T1 sequence

T5: Mtr4 WT (Saccharomyces cerevisiae, UniProt P47047)
T5 sequence: T1 sequence with A1030R

T6: Mtr4 E1033A (Saccharomyces cerevisiae, UniProt P47047 1-1073, E1033A)
T6 sequence: T1 sequence with A1030R, E1033A

B1: poly(A) substrate R22A/R16, fluorescein (dsRNA)
RNA 1: GCGUCUUUACGGUGCUUAAAAA
RNA 2: AGCACCGUAAAGACGC

Legend:
[1] = target: T1, Mtr4 R1030A-archless R1030A (Saccharomyces cerevisiae); assay: fluorescence anisotropy; conditions: FA: 40 mM MOPS pH 6.5, 100 mM NaCl, 0.5 mM MgCl2, 5% glycerol, 0.01% NP-40 substitute, 2 mM DTT, 60 nM RNA, 30 C; EMSA conditions not in material
[2] = target: T2, Mtr4 archless (Saccharomyces cerevisiae); assay: fluorescence anisotropy; conditions: FA: 40 mM MOPS pH 6.5, 100 mM NaCl, 0.5 mM MgCl2, 5% glycerol, 0.01% NP-40 substitute, 2 mM DTT, 60 nM RNA, 30 C; EMSA conditions not in material
[3] = target: T3, Mtr4 E1033A-archless E1033A (Saccharomyces cerevisiae); assay: fluorescence anisotropy; conditions: FA: 40 mM MOPS pH 6.5, 100 mM NaCl, 0.5 mM MgCl2, 5% glycerol, 0.01% NP-40 substitute, 2 mM DTT, 60 nM RNA, 30 C; EMSA conditions not in material
[4] = target: T4, Mtr4 R1030A; assay: fluorescence anisotropy; 0.5 mM MgCl2; FA: 40 mM MOPS pH 6.5, 100 mM NaCl, 0.5 mM MgCl2, 5% glycerol, 0.01% NP-40 substitute, 2 mM DTT, 60 nM RNA, 30 C; EMSA conditions not in material; conditions: protein: recombinant; tags: vector pET151/D-TOPO; label: 3' fluorescein on R16; 3' overhang 6 nt (UAAAAA) on R22A, other end blunt; 16 bp
[5] = target: T5, Mtr4 WT; assay: as above; conditions: protein: recombinant; tags: vector pET151/D-TOPO; label: 3' fluorescein on R16; 3' overhang 6 nt (UAAAAA) on R22A, other end blunt; 16 bp
[6] = target: T6, Mtr4 E1033A; assay: as above; conditions: protein: recombinant; tags: vector pET151/D-TOPO; label: 3' fluorescein on R16; 3' overhang 6 nt (UAAAAA) on R22A, other end blunt; 16 bp

Row | Molecule | Kd [1] [nM] | Kd [2] [nM] | Kd [3] [nM] | Kd [4] [nM] | Kd [5] [nM] | Kd [6] [nM]
1 | GCGUCUUUACGGUGCUUAAAAA / AGCACCGUAAAGACGC [poly(A) substrate R22A/R16, fluorescein] | > 10000 | 4500 | 4800 |  |  | 
2 | B1 |  |  |  | 2600 ± 1000 | 2800 ± 900 | 2000 ± 600
